According to patent publication US20110059095A1:
Numbering of substitutions follows the chain as printed.

How the values were obtained:
[1] = molecular target: full length human PAR-2 (human) (UniProt P55085); assay: cell-based or functional assay
[2] = molecular target: full length mouse PAR-2 (mouse) (UniProt P55086); assay: cell-based or functional assay
monkey PAR-2 (monkey) = assay: cell-based or functional assay
[3] = molecular target: full length human PAR-2 (human) (UniProt P55085); assay: cell ELISA, 10 ug/ml antibody

Sequence of full length human PAR-2 (human) (P55085 26-397 G138A limits assumed): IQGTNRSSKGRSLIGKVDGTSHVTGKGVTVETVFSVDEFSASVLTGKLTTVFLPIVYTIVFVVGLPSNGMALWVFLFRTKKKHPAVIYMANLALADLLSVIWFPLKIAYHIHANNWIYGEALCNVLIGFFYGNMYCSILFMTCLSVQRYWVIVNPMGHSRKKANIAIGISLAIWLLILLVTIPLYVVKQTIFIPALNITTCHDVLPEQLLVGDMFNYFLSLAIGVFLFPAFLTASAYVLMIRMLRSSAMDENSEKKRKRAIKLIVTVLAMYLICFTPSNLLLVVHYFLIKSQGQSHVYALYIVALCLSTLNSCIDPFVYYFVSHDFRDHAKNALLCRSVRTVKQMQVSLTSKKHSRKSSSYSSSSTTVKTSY
Sequence of full length mouse PAR-2 (mouse) (P55086 other isoform, or with tags, fused parts or gaps limits assumed): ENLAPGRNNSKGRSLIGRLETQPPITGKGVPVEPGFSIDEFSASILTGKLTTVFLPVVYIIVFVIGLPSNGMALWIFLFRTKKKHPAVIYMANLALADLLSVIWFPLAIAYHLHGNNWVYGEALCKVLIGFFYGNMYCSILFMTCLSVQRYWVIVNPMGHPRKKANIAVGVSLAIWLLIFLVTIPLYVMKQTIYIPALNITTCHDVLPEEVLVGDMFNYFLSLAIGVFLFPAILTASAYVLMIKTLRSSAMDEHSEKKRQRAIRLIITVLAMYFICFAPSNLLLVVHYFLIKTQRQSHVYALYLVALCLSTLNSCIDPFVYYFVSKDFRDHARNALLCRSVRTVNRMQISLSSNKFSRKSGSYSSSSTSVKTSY

B1: Human Kallikrein 14 (enzyme, UniProt Q9P0G3 25-251, looked up)
chain: IIGGHTCTRSSQPWQAALLAGPRRRFLCGGALLSGQWVITAAHCGRPILQVALGKHNLRRWEATQQVLRVVRQVTHPNYNSRTHDNDLMLLQLQQPARIGRAVRPIEVTQACASPGTSCRVSGWGTISSPIARYPASLQCVNINISPDEVCQKAYPRTITPGMVCAGVPQGGKDSCQGDSGGPLVCRGQLQGLVSWGMERCALPGYPGVYTNLCKYRSWIEETMRDK
Q: For B1, which EC50 of activator, NF-kB-luciferase [1] is on record?
A: The EC50 of activator, NF-kB-luciferase was 5 nM.

Q: And the EC50 of activator, NF-kB-luciferase [2]?
A: The EC50 of activator, NF-kB-luciferase was 8 nM.

Q: And the EC50 of activator, NF-kB-luciferase (monkey PAR-2 (monkey))?
A: Its EC50 of activator, NF-kB-luciferase is 6.3 nM.

B2: H4H581P (antibody, human IgG4, V domains shown)
VH: QVQLVESGGGVVQPGRSLRLSCVASGFTFSRYGIHWVRQAPGKGLEWVIVISYDGINKYYADSVKGRFTISRDNSKNTVYLQMNSLRAEDTAVYYCAKGDFWSGYFDYWGQGTLVTVSS
VL: DIVMTQTPLSSPVTLGQPASISCRSSQSLVHSDGNTYLSWLHQRPGQPPRLLIYKISNRFSGVPDRFSGSGAGTDFTLQISRVEAEDVGIYYCMQATQFPTFGGGTKVEIK
Q: B2 was tested. Which H4H581P IC50, NF-kB-luciferase, Bovine Factor Xa [2] did it give?
A: Its H4H581P IC50, NF-kB-luciferase, Bovine Factor Xa is 340 nM.

Q: And the H4H581P IC50, NF-kB-luciferase, Human Factor Xa [2]?
A: Its H4H581P IC50, NF-kB-luciferase, Human Factor Xa is 109 nM.

Q: And the H4H581P IC50, NF-kB-luciferase, Human Kallikrein 14 [2]?
A: Its H4H581P IC50, NF-kB-luciferase, Human Kallikrein 14 is 256 nM.

Q: What about the H4H581P IC50, NF-kB-luciferase, Human Pancreatic Trypsin [2] of the same binder?
A: Its H4H581P IC50, NF-kB-luciferase, Human Pancreatic Trypsin is 491 nM.

B3: H2M609N (antibody, V domains shown)
VH: EVQLVESGGGLVQPGRSLRLSCAASGFTFDDYAMHWVRQAPGKGLEWVSGISWNSGSKGFADSVKGRFTISRDNAKNSLYLQMNSLRVEDTALYYCAKENWSFDYWGQGTLVTVSS
VL: DIVMTQTPLSSPVTLGQPASISCRSSQSLVHSDGNIYLSWLQQRPGQPPRLLIYKISNRFSGVPDRFSGSGAGTDFTLKISRVEAEDVGIYYCMQASHFPYTFGQGTKLEIK
Q: B3 was tested. Which A450 ratio (293/D9/hPAR-2rec to 293/D9 cells) [3] did it give?
A: Its A450 ratio (293/D9/hPAR-2rec to 293/D9 cells) is 1.54.

B4: H2M611N (antibody, V domains shown)
VH: EVQLLESGGGLVQPGGSLRLSCAASGFTFSSYAMTWVRQAPGKGLYWVSAISGSGGSAYYADSVKGRFTISRDNSKNTLYLQMNSLRAEDTAVYYCAKEGDSGYDLDYWGRGTLVTVSS
VL: DIQMTQSPSSLSASVGDRVTITCRARQGISNYLAWLQQKPGKAPKSLIYAASSLQSGVPSKFSGSGSGTDFTLTISSLQPEDFATYYCQQYKSSPLTFGGGTKVEIK
Q: For B4, which A450 ratio (293/D9/hPAR-2rec to 293/D9 cells) [3] is on record?
A: The A450 ratio (293/D9/hPAR-2rec to 293/D9 cells) was 1.76.

B5: H1M619N (antibody, V domains shown)
VH: B3 VH with P14A, K58R, F60Y, Y80H, N84Y, V88A
VL: B3 VL with I36T, N58Y, E84A, A85T, I90V, S97T, H98Q, F99L
Q: Which A450 ratio (293/D9/hPAR-2rec to 293/D9 cells) [3] does the source give for B5 here?
A: The A450 ratio (293/D9/hPAR-2rec to 293/D9 cells) was 1.51.

B6: H3M620N (antibody, V domains shown)
VH: EVQLVESGGNVVRPGGSLRLSCAASGFTFDDYGMTWVRQVPGKGLEWVSGINWNGGSTDYADSVKGRFTISRDNAKNSLYLQMNSLRAEDTALYYCARDKGFYGMDVWGQGTTVTVSS
VL: DIVMTQSPDSLAVSLGERATINCKSSQNPLYNSNKKKYLAWYQQKPGQPPKLVIYWASTRESGVPDRFSGSGSGTDFTLTITSLQAEDVAVYYCQQYYSTPYTFGQGTKLEIK
Q: How did the A450 ratio (293/D9/hPAR-2rec to 293/D9 cells) [3] turn out when B6 was run?
A: The A450 ratio (293/D9/hPAR-2rec to 293/D9 cells) was 1.24.
